Measured values from PMC11472163, “Crystal structure and nucleic acid binding mode of CPV NSP9: implications for viroplasm in Reovirales”.

What was measured:
[1] = target: BmCPV1 NSP9^ΔC (1–286 amino acid residues, lacking residues 287–320), expressed in E. coli (Bombyx mori cypovirus 1 (BmCPV1)); test: AUC
[2] = target: BmCPV1 NSP9^ΔC (1–286 amino acid residues, lacking residues 287–320), expressed in E. coli (Bombyx mori cypovirus 1 (BmCPV1)); test: SEC; […]; 10 mM HEPES pH 7.5, 100 mM NaCl; […]
NSP9ΔC [3] = target: T1, NSP9ΔC (Bombyx mori cypovirus 1 (BmCPV1), UniProt O72505 1-286); test: EMSA; two sequential bands; 2:1 dimer:NA; […]; SEC: 10 mM HEPES pH 7.5, 100 mM NaCl; conditions: protein: recombinant; chain copies: 2; label: 5' 6-FAM
NSP9ΔC [4] = target: T1, NSP9ΔC; test: EMSA; 1:1 NSP9ΔC dimer:ssDNA; […]; SEC: 10 mM HEPES pH 7.5, 100 mM NaCl; conditions: protein: recombinant; chain copies: 2; label: 5' 6-FAM (EMSA)
NSP9ΔC [5] = target: T1, NSP9ΔC; test: EMSA; no significant difference from DNA; […]; SEC: 10 mM HEPES pH 7.5, 100 mM NaCl; conditions: protein: recombinant; chain copies: 2; label: 5' 6-FAM

In the case of “BmCPV1 NSP9^ΔC (1–286 amino acid residues, lacking residues 287–320), expressed in E. coli (domain or fragment)”, the stoichiometry N [1] is reported as 2 and the stoichiometry N [2] is reported as 2.

AGUAAAUCCCAGGCGCUCGGGUCGUUAGCC (ssRNA) [30 nt ssRNA]: binds (NSP9ΔC [3]).

AGTAAATCCCAGGCGCTCGGGTCGTTAGCC (ssDNA) [30 nt ssDNA]: binds (NSP9ΔC [3]).

AGTAAGCTGTTAGCC (ssDNA) [15 nt ssDNA]: binds (NSP9ΔC [4]).

AGUAAGCUGUUAGCC (ssRNA) [15 nt ssRNA]: binds (NSP9ΔC [5]).
